Experimental data published in US20260207767A1 (ANAVEON, published 2026).

Molecular target: T1, IL-2R CD122-CD132 on Jurkat-PD1+CD122+ cells (UniProt P14784 27-551; P31785 23-369)
T1 sequence (looked up) 1: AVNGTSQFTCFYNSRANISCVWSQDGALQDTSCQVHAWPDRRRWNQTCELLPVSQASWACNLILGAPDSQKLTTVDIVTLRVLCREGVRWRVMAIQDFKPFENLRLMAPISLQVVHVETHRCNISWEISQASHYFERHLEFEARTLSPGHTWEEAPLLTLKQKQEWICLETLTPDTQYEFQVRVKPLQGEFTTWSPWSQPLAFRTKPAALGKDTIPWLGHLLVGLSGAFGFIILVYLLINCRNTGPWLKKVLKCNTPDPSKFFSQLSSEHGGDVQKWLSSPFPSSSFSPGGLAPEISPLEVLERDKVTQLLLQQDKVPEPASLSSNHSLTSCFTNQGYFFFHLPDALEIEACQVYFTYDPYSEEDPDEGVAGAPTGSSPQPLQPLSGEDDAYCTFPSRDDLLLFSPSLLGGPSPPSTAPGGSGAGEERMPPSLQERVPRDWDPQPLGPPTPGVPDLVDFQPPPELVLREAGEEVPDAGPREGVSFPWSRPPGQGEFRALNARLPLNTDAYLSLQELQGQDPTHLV
T1 sequence (looked up) 2: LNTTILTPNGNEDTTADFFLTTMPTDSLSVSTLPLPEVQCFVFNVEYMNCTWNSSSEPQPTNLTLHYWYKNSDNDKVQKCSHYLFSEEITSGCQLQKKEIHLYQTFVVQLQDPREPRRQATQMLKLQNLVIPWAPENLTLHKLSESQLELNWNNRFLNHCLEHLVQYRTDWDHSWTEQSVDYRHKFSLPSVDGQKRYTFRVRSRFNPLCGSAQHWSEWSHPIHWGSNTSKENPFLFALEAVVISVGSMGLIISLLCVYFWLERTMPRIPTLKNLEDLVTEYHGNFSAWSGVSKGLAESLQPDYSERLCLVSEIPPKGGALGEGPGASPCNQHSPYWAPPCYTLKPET
Assay: cell-based or functional assay

| Binder | EC50 value for pSTAT5 induction, Jurkat-PD-1+CD122+ cells [nM] |
| --- | --- |
| JLI141 (bispecific antibody, human IgG1, lambda, L234A L235A) heavy 1: EVQLLESGGGLVQPGGSLRLSCAASGFTFSINAMTWVRQAPGKGLEWVSTISGSGFSTYYADSLKGRFTISRDNSKNTLYLQMNSLRAEDTAVYYCAKEVYGDYWGQGTLVTVSSASTKGPSVFPLAPSSKSTSGGTAALGCLVKDYFPEPVTVSWNSGALTSGVHTFPAVLQSSGLYSLSSVVTVPSSSLGTQTYICNVNHKPSNTKVDKRVEPKSCDKTHTCPPCPAPEAAGGPSVFLFPPKPKDTLMISRTPEVTCVVVDVSHEDPEVKFNWYVDGVEVHNAKTKPREEQYNSTYRVVSVLTVLHQDWLNGKEYKCKVSNKALAAPIEKTISKAKGQPREPQVYTLPPSREEMTKNQVSLTCLVKGFYPSDIAVEWESNGQPENNYKTTPPVLDSDGSFFLTSKLTVDKSRWQQGNVFSCSVMHEALHNHYTQKSLSLSPGK light: not shown heavy 2: AIRLTQSPSSFSASTGDRVTITCKASQSVDYGGGNFHLRPRDLISNINVIVLELKGSETTFMCEYADETATIVEFLNRWITFSQSIISTLTPTSSSTKKTQLQLEHLLLDLQMILNGINNYKNPKLTRMLTFKFYMPKKATELKHLQCLEEELKPLEEVLNLAQSKGGGGDSYMNWYQQKPGKAPKLLIYAASNLESGVPSRFSGSGSGTDFTLTISSLQSEDFATYYCQQSNEDPYTFGGGTKVEIKGGGGSGGGGSGGGGSEVQLVQSGAEVKKPGESLKISCKGSGYAFTNYLIEWVRQMPGKGLEWMGVINPGSGGTNYNEKFKGQVTISADKSISTAYLQWSSLKASDTAMYYCARWRGEGYYAYFDVWGQGTTVTVSSGGGGSGGGGSEVQLLESGGGLVQPGGSLRLSCAASGFTFSINAMTWVRQAPGKGLEWVSTISGSGFSTYYADSLKGRFTISRDNSKNTLYLQMNSLRAEDTAVYYCAKEVYGDYWGQGTLVTVSSASTKGPSVFPLAPSSKSTSGGTAALGCLVKDYFPEPVTVSWNSGALTSGVHTFPAVLQSSGLYSLSSVVTVPSSSLGTQTYICNVNHKPSNTKVDKRVEPKSCDKTHTCPPCPAPEAAGGPSVFLFPPKPKDTLMISRTPEVTCVVVDVSHEDPEVKFNWYVDGVEVHNAKTKPREEQYNSTYRVVSVLTVLHQDWLNGKEYKCKVSNKALAAPIEKTISKAKGQPREPQVYTLPPSREEMTKNQVSLYCLVKGFYPSDIAVEWESNGQPENNYKTTPPVLDSDGSFFLYSKLTVDKSRWQQGNVFSCSVMHEALHNHYTQKSLSLSPGK | 0.2 |
| GQM289 (bispecific antibody, human IgG1, kappa, lambda, L234A L235A) heavy 1: EVQLLESGGGLVQPGGSLRLSCAASGFTFSINAMTWVRQAPGKGLEWVSTISGSGFSTYYADSLKGRFTISRDNSKNTLYLQMNSLRAEDTAVYYCAKEVYGDYWGQGTLVTVSSASTKGPSVFPLAPSSKSTSGGTAALGCLVKDYFPEPVTVSWNSGALTSGVHTFPAVLQSSGLYSLSSVVTVPSSSLGTQTYICNVNHKPSNTKVDKRVEPKSCDKTHTCPPCPAPEAAGGPSVFLFPPKPKDTLMISRTPEVTCVVVDVSHEDPEVKFNWYVDGVEVHNAKTKPREEQYNSTYRVVSVLTVLHQDWLNGKEYKCKVSNKALAAPIEKTISKAKGQPREPQVYTLPPSREEMTKNQVSLTCLVKGFYPSDIAVEWESNGQPENNYKTTPPVLDSDGSFFLTSKLTVDKSRWQQGNVFSCSVMHEALHNHYTQKSLSLSPGK light 1: not shown heavy 2: EVQLVQSGAEVKKPGESLKISCKGSGYAFTNYLIEWVRQMPGKGLEWMGVINPGSGGTNYNEKFKGQVTISADKSISTAYLQWSSLKASDTAMYYCARWRGEGYYAYFDVWGQGTTVTVSSASTKGPSVFPLAPSSKSTSGGTAALGCLVKDYFPEPVTVSWNSGALTSGVHTFPAVLQSSGLYSLSSVVTVPSSSLGTQTYICNVNHKPSNTKVDKRVEPKSCDKTHTCPPCPAPEAAGGPSVFLFPPKPKDTLMISRTPEVTCVVVDVSHEDPEVKFNWYVDGVEVHNAKTKPREEQYNSTYRVVSVLTVLHQDWLNGKEYKCKVSNKALAAPIEKTISKAKGQPREPQVYTLPPSREEMTKNQVSLYCLVKGFYPSDIAVEWESNGQPENNYKTTPPVLDSDGSFFLYSKLTVDKSRWQQGNVFSCSVMHEALHNHYTQKSLSLSPGK light 2: not shown | 0.22 |
